# Measured values reported in article PMC11499148.
# Biological target: soluble human FcRn (human) (UniProt P55899)
# Test: SPR; pH 6.0
row,Kd,Substance
1,137 nM,hAK23-IgG1-DHS
2,334 nM,hAK23-IgG1-WT
3,64 nM,hAK23-IgG4-DHS
4,215 nM,hAK23-IgG4-WT
